For test [1], the target named is Human IL-17RA:Fc (human), Q96F46. Description: SPR (BIAcore 3000), receptor:Fc captured by anti-human Fc, cytokine as analyte, koff/kon, 1:1 Langmuir fit. To be noted: remark: other sources report otherwise. (Surface plasmon resonance follows binding to a sensor surface in real time, without labels.)
Another test deals with Human IL-17RC:Fc (human) (UniProt Q8NAC3). The test is described as above.

The source of these data is US20110008356A1.

In general, Kd refers to the free concentration of one partner at which half of the binding sites on the other are occupied at equilibrium, for simple one-to-one binding. Higher therefore signals a looser complex.

B1: Human IL-17F, Q96PD4 31-163 (ligand, UniProt Q96PD4 31-163, looked up)
chain: RKIPKVGHTFFQKPESCPPVPGGSMKLDIGIINENQRVSMSRNIESRSTSPWNYTVTWDPNRYPSEVVQAQCRNLGCINAQGKEDISMNSVPIQQETLVVRRKHQGCSVSFQLEKVLVTVGCTCVTPVIHHVQ
In test [1], B1 came in with a Kd of 0.1 µM. That is a sub-micromolar value.

B2: Human IL-17F (ligand, UniProt Q96PD4 31-163, looked up)
chain: RKIPKVGHTFFQKPESCPPVPGGSMKLDIGIINENQRVSMSRNIESRSTSPWNYTVTWDPNRYPSEVVQAQCRNLGCINAQGKEDISMNSVPIQQETLVVRRKHQGCSVSFQLEKVLVTVGCTCVTPVIHHVQ
In the test with Human IL-17RC:Fc (human), B2 showed a Kd of 0.0001 µM.
